Reference: publication PMC314469, “Protein Interaction Networks by Proteome Peptide Scanning” (PLoS Biology, 2004)

T1: Boi1 SH3 (BOI1_YEAST), P38041
T1 chain: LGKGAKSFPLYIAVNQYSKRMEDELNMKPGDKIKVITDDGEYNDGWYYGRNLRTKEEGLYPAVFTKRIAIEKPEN

T2: Boi2 SH3 (BOI2_YEAST), P39969
T2 chain: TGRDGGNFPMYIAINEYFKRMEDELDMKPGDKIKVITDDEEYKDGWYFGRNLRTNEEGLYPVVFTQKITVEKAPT

T3: Myo5 SH3 (MYO5_YEAST), Q04439
T3 chain: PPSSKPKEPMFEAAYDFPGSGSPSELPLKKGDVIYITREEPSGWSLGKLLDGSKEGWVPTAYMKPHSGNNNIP

T4: Rvs167 SH3 (RV167_YEAST), P39743
T4 chain: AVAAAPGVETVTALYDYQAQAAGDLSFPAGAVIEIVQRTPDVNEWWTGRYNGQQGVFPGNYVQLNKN

T5: Yfr024 SH3 (LSB3_YEAST), P43603
T5 chain: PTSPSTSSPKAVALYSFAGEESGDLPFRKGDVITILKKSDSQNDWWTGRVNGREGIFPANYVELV

T6: Yhr016c SH3 (YSC84_YEAST), P32793
T6 chain: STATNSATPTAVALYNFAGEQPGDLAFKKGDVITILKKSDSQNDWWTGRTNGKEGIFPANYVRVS


Columns and labels:
Assay in all cases: SPOT array
[1] = biological target: T1, Boi1 SH3 (BOI1_YEAST), P38041
[2] = biological target: T2, Boi2 SH3 (BOI2_YEAST), P39969
[3] = biological target: T3, Myo5 SH3 (MYO5_YEAST), Q04439
[4] = biological target: T4, Rvs167 SH3 (RV167_YEAST), P39743
[5] = biological target: Sho1 SH3 (SHO1_YEAST), P40073
[6] = biological target: T5, Yfr024 SH3 (LSB3_YEAST), P43603
[7] = biological target: T6, Yhr016c SH3 (YSC84_YEAST), P32793

Sho1 SH3 (SHO1_YEAST), P40073, sequence (P40073 295-366): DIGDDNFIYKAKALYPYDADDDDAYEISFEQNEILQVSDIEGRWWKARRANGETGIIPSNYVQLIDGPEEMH

| normalised SPOT signal, Boehringer light units (BLU); mean over the file's lines of this peptide [1] | normalised SPOT signal, Boehringer light units (BLU); mean over the file's lines of this peptide [2] | normalised SPOT signal, Boehringer light units (BLU); mean over the file's lines of this peptide [3] | normalised SPOT signal, Boehringer light units (BLU); mean over the file's lines of this peptide [4] | normalised SPOT signal, Boehringer light units (BLU); mean over the file's lines of this peptide [5] | normalised SPOT signal, Boehringer light units (BLU); mean over the file's lines of this peptide [6] | normalised SPOT signal, Boehringer light units (BLU); mean over the file's lines of this peptide [7] | Binder |
| --- | --- | --- | --- | --- | --- | --- | --- |
| 100 | 54.6 | 89 | 244 | 15.3 | 1530 | 34.4 | LTSVKIVPQRPISD [YAL054C 43-56] |
| 190 | 104 | 231 | 12.4 | 27 | 65.5 | 21.1 | LTLTKWDPSKPISL [YKL027W 383-396] |
| 62.5 | 6.6 | 213 | 44.3 | 22900 | 125 | 18.8 | LSYLKDLPFVPFLF [YNL143C 64-77] |
| 642 | 86.5 | 324 | 394 | 55900 | 837 | 105 | LSRSKPLPLTPNSK [YCL027W 415-428] |
| 807 | 31.9 | 213 | 174 | 53.3 | 2350 | 47.2 | LSPAKARPSFPHND [YOR178C 9-22] |
| 471 | 33.2 | 157 | 37.4 | 54.8 | 27.1 | 7.9 | LSKLRLSPENPSNT [YKL101W 1214-1227] |
| 3090 | 84.8 | 393 | 388 | 117 | 937 | 71.9 | LTKIRRRPQQPLTD [YER047C 13-26] |
| 73.7 | 29.6 | 432 | 1460 | 94 | 1410 | 80.1 | LSGTRLVPNSPLLW [YBR055C 692-705] |
| 92.6 | 0 | 174 | 91.3 | 48.1 | 124 | 7.4 | LSFDRPPPLTPEKN [YER032W 254-267] |
| 242 | 0.6 | 246 | 109 | 22.3 | 205 | 74.5 | LRISKPDPESPSKL [YBL101C 847-860] |
| 135 | 37.3 | 703 | 160 | 93.6 | 1030 | 730 | LTIFKRPPKQPGHQ [YOL006C 477-490] |
| 479 | 37 | 752 | 92.6 | 82.7 | 342 | 51.9 | LSKVRGRPMYPRPA [YBR083W 422-435] |
| 710 | 12.9 | 328 | 50.5 | 189 | 216 | 23.2 | LTSFKGRPKPPKTL [YGR221C 455-468] |
